In publication PMC6913127, “Structures of MERS1, the 5′ processing enzyme of mitochondrial mRNAs in Trypanosoma brucei” (RNA, 2020):

B1: fluoresceinated MERS2 peptide F-SVSKQAVCLMERHLRRVPGARRNELKVALSKELKER [modified: fluorescein (F-) printed at the N-terminus; fluorescein (F-) printed at the N-terminus] [T. brucei] / T. brucei MERS1(37–395), his-tagged [Trypanosoma brucei … (parent complex)
chain 1: SVSKQAVCLMERHLRRVPGARRNELKVALSKELKER
chain 2: LVPRGSMDDALRGELASALDTEGHALPFDVHLQQPHSSGDGTAGDTSTIQLEKLSHPPARFDLLTNSFVYKWQTKAALARKVSGPMREWAAELKYRTGVHIELEPTYPERLSENAVKGSGSDDGDGTQWGAYETADDVDITVYLFGSERGIFNCHKLMEAAIQQDPVYVRLGIFRRLANSSEVEWLMLRRINRELRPPDIPPISLKLPGKWTLLYERYKEAAIRTLWEETGITVDASNVYPTGHLYQTVPQYYWRVPVRYFVAEVPSDIRVEGPQVVPLQYMRNWDARLLRQSPDPIDRAWAQLADPATGCAWMKASMIDQLQKPLRGDNYMAIRYTPPPYSNLQEVVGLGDGSITPSTGNGEDAS

Variants of: B1
Assay: fluorescence polarization; value read at the highest MERS1 concentration point, about 13.3 µM (estimated from the x axis); parent: 53; read off a plot

Variant	response [mP]
chain 1 L29P, chain 1 E32P	~21
